This series can be described thus: protease stability score; higher = more stable; yeast display proteolysis, trypsin and chymotrypsin.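 Further: log10 excess protease needed over predicted unfolded state with 0 meaning unfolded.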
In turn, “DEKDAEKVMRELAKAAVNGNYKKAVQLVKEDVQVEYMDQRTHGKEKLKEMLKKFTDLGAEVEYKEVHVKGDTVTVKVEAKMDGKKVKFKVQYVVTDHRLDKVTVKYSEEAYKVIKHG” showed a protease stability score of 0.525. “DEDKLDHLARKAAEIMVQGDPDKFRDMFDPNAKLRYGDKELRGREEADKAIEEMQKRVDSSDVEDITAHNGRANAVLVLNHNGRHKRFVLVVDVRNGRATKASMHDD” showed a protease stability score of -0.062.

“DEQEKAERLAKTAVEAYETNDPEVMRRLLPPDAEVRVGDKEIHGREENSRQVQRELDRVDRVQVSMKTVHVDGNKLNVVLELRVEHDGETDTREIVIIFDVRNGTIQAQEINIG” had a protease stability score of -0.05. With “DDEELKRQAEEFLKNVKTGNHQELVKQMDPNVKVDVGDKRLQGRETAAHWFVKLVEQVDDFHVQTFDVHGETLEMHFVMEINGHRLQMVLRAEVHNGHIQEMSIDYRDPDRLRKVLS” the figure was 0.392; with “DDTAMRVYQEIVKALQTGDPDKVRNNFDENVEYHVGDTKVHGRDEALERIKKRMDEIRVEIQLQKVETQGDKVIVRARYVNETNGKPKQSNNNIIFKVKNGKMTHMQEREDS”, -0.045; with “DHQELAEKWFRTFVTNQERGDEESLVKMADKDVRLHIGDKTIHGREQFHHWIQELRRRVDHQSMTVRHIDVQGDKIRIDAEAVFNVNGRNDKFKIDIEAEIQGDKVVLKRIIFN”, 1.63. With “DEHNNEMARKVLHAWRKGDENRVKRMLDPNARIVIGDKTIHGMEQMQTWVQELKKEITIDLKSVHVQSQGDKANVEFTHKQKDNGKPDSRKVTVIFVFSNGRIKRIQVDDDG” the figure was 0.033; with “DERDLHRQAEDVATAWQTGDSHQFEKLASENVRYVIGDKSYKGKEQVKDMLTEIDKQADHRRVSSMTVHGNKIVVVITVHYNGRTRRLNVVFDVHNGRVRQVDLSIG”, 0.701; with “DEEAMKRFQELLDVLRTGDENRAKKLMDENVHLLVGDKEINGRDHAAKTMAQTYREMRIEYKTVKRDVTNGVVHVRMRYVKEHNGTPNDRVVLVEVRFHNGRLKVLNRNEKD”, 0.352. “DHEKNKQHVDQFNEILKNGNPDEANKLADKDVEIEVGDKRYHGHEDFRKYQEEIAEQADHVKVTEVEVDGNKANVDVVLRINGKNLRRTFLLQIHNGRLKRLSFDPDQWDKARG” gave a protease stability score of 0.91. With “DEHELNKFEQLLRDRETGDEEHLKRLMDKDARVNVGDKNVHGREEAANQQVERVKRMDVRILHMDLKDNNGKINADITRIIHTNGHPDKHQFVLTVDVKNGRVQNIRQDDTS” the figure was -0.284; with “DERNNKQADQFLRDMEKNDEHKLRKLADENVKFKIGDKVFRGWHDAVTEIATRIREMRVNVHRYDVKTHNGRVNLEIHQTAEYNGQPLNFSYIVIMEYQNGRLVRVNIRVSEEELKTMTQ”, 0.475; with “DHEAQENAKHFIDALHTNDPRQVVEMIDPNARVNVGDKQLRGDSQVRKWWRRQNEEIRMHVKVDDIKVKGNNAVAKFKMEITHDGTPNDNHAEMTVTFHNGRATDLKVDEDK”, 0.017. For “DEEEEKRMTKILEHNDFHKLADNADPNVQINIGDKHIHGRDQAQTFFKQMQKAADHWSIRTMNVRNGHIVVDLVMNVNGQNIRFNLRIERRNGHIKSASVQFTDPDQKRQFDENRS” the value was 0.599. On to “DEEDAKRVEEMLEALRTGDWKKATDMADPDARFQIGDKRYHGMHQVAREWKNQYDQMRIEINVKEWNIHNGRVDLKFEQKNDHNGKPDNFRASATFQFHNGQLVEAQYQRDS”, for which the protease stability score was 0.634. Take “DEEHNQRLAERVAKVVQSGDEEEFEKQADPNVKVVYGDKTYHGNSEAMNAIKQIRKQADTVSVQSVDVHGDTARIQMRFDVNGKDRIVKVTVQVDNGRVVEVRFHET”: the protease stability score came to 1.12.

On to “DESKQKQFEHFLEVVKTGNEEDLRKNMDKDVRVQIGDKQVHGRENIASELVRRQKEIKLHIRDMRIDVHNGRVQASVDVVDNINGKPTRYSYRFEYNIENGKLKSARIHIDPDQVRKVEE”, for which the protease stability score stood at 1.03. For “DEEDVKRFAREFFTALQKNDEKKVTDLVDENARAEVGEREYHGREDVATMLARFNKRVDHAHLKRLEVTGDQVIMVFEVVHDGRKTNVSIDMRVHNGRLLEFRMETS” the value was 1.41; for “DEEENNKIARRAAKAFSTGDPDEFHKLVDPNARVRIGEKEVHGREDVHRMVQELRERADHIQVTSFTFQGNKITLDLSLDVNGHTVKLNVEITIHNGHVVDINIDPEQVKSLHG”, 0.647; for “DDEVLDQVKEFLKAVKTGNDQQIKRLADKDVHFKIGDDVIDGREKVTKEWKQQHREMSVDYKKVKLQKRPNRAIVTYDVHYRHNGRPQSLKVQVRFTFDNGKLQSMSVTNSQ”, -0.006. For “DEDKEIRKFIKNNKDILKNGDPREYVRQMDPNAKMQYGDKQVRGNDQLERHLHTKLKRIDSQSVDFKDVDLKGDKIRLRARRTYQFNGRTSSEEFVVVMTFTNGQARVHKINYK” the value was 0.103.

As for “EDDVKRKQETWLKAVEDNNPEEAEEQADKHVQVVIGDKRIRGMEEMAHFIEHERRQADIRIQDYRISARGDKVRANISMHFNVNGTPEQASIKIQVTLSNGKIRKMVFRFDDQEFRRIQS”, the protease stability score is 1.1.

Take “DESRKAREYMDKFKEIMDTGDPDKLRNLVPPDVTMQYGDRSLKGREEFVEHLQELLERADHVDVTVVDVKQDGDQLHFEVRVTYEENGERREYTFVFVAIVQGDKVRVKEMREK”: the protease stability score was found to be 0.065. With “NEEQLERVVKKWMEAVENADSKKVKELLKPDAEVQFGNRTVKGVDELVKYVKKFMDMGVELEVKEHKVEGGRARYQVVATYGGQTVTAQLTIQAKNGKIEKIEFRDNEEVQTLEKQG” the figure was 0.988; with “DEDRVRKVAKEVFEMLKKGDVDKLKELGKEDVVFQFGDERVKGVEEYRRIMKEMQDQGVQHEVKKAQVKDDTAKMVTVVTYGNKDVQLTAEATYEGGRLKEARVENTEEYKKIAKKS”, -0.084; with “DEEQHSVADQFNRDLRQGDPDTIRKLLDKDADLRVGDKDLHGRENLIDHMRKMHKKMQVNVDVDSVEDHNGKVIIQATVVEHHNGKPKTYQVDARLHADNGKIKNADFQETS”, -0.115. For “DKEELSWAKKVLEKNNWESLAENADENAKVDVGDKRYSGREQVEHLMNQLRRRVDHVEYKHIDSKGDKLVADFQVVVNGREVKVRLQMNVHNGRVRHLTMEARNEDDKRFLKEMLD” the value was 1.3; for “DETEKAKTFMDELRKVLQTGDEEQISRNMDPNARLNVGDKTIHGRERLAKEMSDEVKRADHIDIKVKSISVHNGKVRVDFFFTLEYNGQHRRTRRIMHADISDGQIKIKQIHDN”, 1.4. With “DEDETAKRVNDKAREAAETNNPKQFEELADPNVRMVIGDKEWRGRRQLSHWYKEMADRADHMQVDYQDVHVSGDKVTLHVQINLESNGHSEIKTLIVVMVVHNGRLRAQSQWEQ” the figure was 0.534; with “DDNLNRKVKKFWKVLQKGNPHEAKKYFDPNAHIVIGDQRIHGMDKFNRRMEHMKSHIRVQIDTLRMQDNGSQVDVTFEAVFNHNGRPKRYRARVRFEVHNGKAKSLTLKEDQ”, 0.265; with “DEEEQEKQAHDFARVFNTGDEEKFKRLMPPDARFRYGDKEYHGMDDLLRMLLEMHKRADHLTLVDVDAHGNHLTIRIKVTVNGSDVTVDITITVDNGRLKSVVVDPRQWQKLRN”, 0.066. In turn, “DDSVMTAVKELLTNIQSGDPDKIQRYLDPNARMQVGDKEIHGRENIAKEIHDQNNEMEVDIEVKHVEVTGDTAIVHADVQEFHNGRPDTFHLVVRAKQDNGKMTSVVFEKRK” returned a protease stability score of -0.268. For “DSEVLDVLTSIVKNIHNGNPDEVMKQMDPNARVQVGDDRFHGDRKQQEDVQTLLDTMEVNIHITSVDFDGDKVTVRFKVEYNVNGRPFRIEAEMQAVAKNGRIQDLKVRIDKQFLSELKS” the value was 0.858; for “EEKNRKVFEEAMKAFQTNDKDQAERMFDENATVKIGDQEIHGNKQIREHIRTMEEHMRLEIKSIDLKVSNGRVHANITFVEEHNGEPKTLRLHVRAEVDNGTIESMQFNDDG”, 0.159.

Turning to “DEEALHILERFLKLMETNDEETLRDLVDPNAENRVGDKTVHGREDFQREVHTMKKQWRVRFRHIDNQSRPNEAVVRANVNNDINGRPITEDVVFRADFKNGKLKSLHIQMPEEYKKELDK”, the protease stability score worked out at 0.455. With “DERAAQTAVDLMKTNNERDRVKMADENVRYNVGDKTVHGREEWKKFAEQQRTSIDHMKIDDVKHHNGRIQVDMVVVVNGKKFRFVLQATVHNGKFKYFQRKVRDDEIRKILRRINK”, the protease stability score came out at 0.235. With “DTDDNRKAAENILTAIQSNDPDERQKNADENVKVNVGDNRISGRENMHEFMKRVWEDVDKITIRSYTFKGDKMTADIHLNFNGQTAKLNVDVNIHNGKAQEVSMDPKADRVVRT” the figure was 0.47; with “DEESNHDVARKLMRALETGDPDKLRELADKHARITVGEKTIHGREDASRFAKELRDRIDHATVKHMDVDGNKVVINMTVRVNGRDLEVFVTAIVTNGRIKHIRFQYTDEDKNKEVEG”, 1.18; with “DDKEKAEKFLTKWVEAIKTGNEEQLNELADPNVRFKYGDRVIHGREQQAKHNKELRERADRMEFRVDDVDIRPGKVVVHARYTVNINGKEETHQYTATADVKNGRLQITEQQNS”, -0.092. As to “DSNALSRAMEYLRVVEQGDPKRAKQLFDPNARFIYGDRTVHGKDRIADMLRHERDDMRLQIDDLKTTVQGDKVVVRYKAVRERNGHPETFRAEFRVEFNNGKIEQQNYQVHK”, the protease stability score was 0.25.

In the case of “DEEEQDKVRKNIHHNNFDHLVQMADPNAHVKIGDKRIHGREELRKYQEKLKKQADHFSIDDMKVEGNKFKVKNNFKVNGQSFEHDYEATVQNGRLKSATVDARDEEDKKKLNEQMS”, the protease stability score stood at 0.451. For “DDRHLHHRAREWAEQLKTNDEDELTKYVDPNARMRVGDKSVHGREKLQEQIHRDNERVDNVEIRSIRIENGTVNIRQVNDVNGRNDDFRVRMHIHNGQLKVNERHSP” the value was -0.38; for “DERHAHTVVKKIIDALHTGDEDTLRHLADKDVRLQVGEKEVHGREEFAKEMSKFHKRVDHMEIKDVTNTGDHASVKYSAKFDGKTFNARADLVVHNGKLKKMHIDPERQKQMDS”, 0.535; for “DEKEVATRFVKTVVEILRRGNPDDWMKLVDPNATAHYGDKTYHGREELKTLMEDRNRHADRIDVDVKSYDAHNGKVQVHVVVVQTHNGRSTTHEVRIVADLHNGDAKIRSIQEQ”, 0.713.

In turn, “DEERVRKVVEKLVDAVTRGDKDDIKKMLKKHVEFKLVDQEYKGVDQAVKVVKELHDYGMEVHVKEVRVKGDTAHATTVWKKGNTEAHVKVEYHVRDDKVEKVKIQWTEEAQKALKHG” had a protease stability score of 0.283. As to “EDENTRKFVQYLKILKDGNEQELKKDMDPNAHIKVGDKTLSGMDKITDDVRRKLEEMTVDFTTVSAKAENGRLDVNMSLNNEVNGRPRSDDVTIEVRIHNGKFDHIIYHMDPNRLKEVER”, the protease stability score is -0.104. With “DEKKIKDLARRVMQYYVSGNTEEVEKLGKDDVQVHFGDQTYHGVEQVKKVVKEFKEYGVELQLKDIQYDGDRADAEVEVHAGGHTWKFTVTVQLDGGKVDNLTFHVSDEAKKAIEHG” the figure was 0.982.

Values taken from the NTF2 design screens of Basanta et al. (2020).
